Data as given in paper PMC9389042, “Atypical IκB Bcl3 enhances the generation of the NF-κB p52 homodimer” (Frontiers in Cell and Developmental Biology, 2022).

T1: p52 (1-341) fused to a BiFC fragment (human, UniProt Q00653 1-341)
T1 construct: NF-kappaB p52 (processed product of NF-kappaB2/p100), rel homology region, residues 1-341; Three constructs that differ only in the fluorescent-protein fragment are written as one molecule; The methods give limits for p52-VN and p52-CC only; also called p52-VN; p52-CC; not shown: BiFC fragment behind a (GGGGS)2 linker (Venus 1-172 in p52-VN; Cerulean 155-238 in p52-CC; N-terminal fragment of …)
T1 sequence (looked up): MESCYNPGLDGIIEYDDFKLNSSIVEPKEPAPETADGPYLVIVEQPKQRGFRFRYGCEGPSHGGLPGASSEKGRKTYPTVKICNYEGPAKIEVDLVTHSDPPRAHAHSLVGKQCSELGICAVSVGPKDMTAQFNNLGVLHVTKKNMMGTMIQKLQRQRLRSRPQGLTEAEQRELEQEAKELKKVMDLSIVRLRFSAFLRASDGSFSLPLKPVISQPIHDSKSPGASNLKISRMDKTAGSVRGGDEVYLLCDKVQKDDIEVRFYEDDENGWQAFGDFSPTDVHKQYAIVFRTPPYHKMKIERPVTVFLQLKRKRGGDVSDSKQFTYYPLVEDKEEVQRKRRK

T2: Recombinant non-tagged human p50 (1-435) (human, UniProt P19838 1-435)
T2 chain: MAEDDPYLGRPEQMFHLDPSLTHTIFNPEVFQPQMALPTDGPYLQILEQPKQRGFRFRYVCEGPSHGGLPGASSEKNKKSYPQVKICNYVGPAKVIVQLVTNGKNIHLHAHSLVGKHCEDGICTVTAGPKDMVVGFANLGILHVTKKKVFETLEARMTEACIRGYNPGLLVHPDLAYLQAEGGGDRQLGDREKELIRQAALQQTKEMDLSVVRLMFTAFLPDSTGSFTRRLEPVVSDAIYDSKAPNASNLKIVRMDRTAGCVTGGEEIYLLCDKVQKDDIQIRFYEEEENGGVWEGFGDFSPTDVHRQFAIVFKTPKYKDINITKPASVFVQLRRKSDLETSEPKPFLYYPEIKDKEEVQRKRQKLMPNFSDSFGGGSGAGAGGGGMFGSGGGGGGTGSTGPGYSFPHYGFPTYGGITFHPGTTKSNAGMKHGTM

T3: Recombinant non-tagged human p52 (1-398) (human, UniProt Q00653 1-398)
T3 chain: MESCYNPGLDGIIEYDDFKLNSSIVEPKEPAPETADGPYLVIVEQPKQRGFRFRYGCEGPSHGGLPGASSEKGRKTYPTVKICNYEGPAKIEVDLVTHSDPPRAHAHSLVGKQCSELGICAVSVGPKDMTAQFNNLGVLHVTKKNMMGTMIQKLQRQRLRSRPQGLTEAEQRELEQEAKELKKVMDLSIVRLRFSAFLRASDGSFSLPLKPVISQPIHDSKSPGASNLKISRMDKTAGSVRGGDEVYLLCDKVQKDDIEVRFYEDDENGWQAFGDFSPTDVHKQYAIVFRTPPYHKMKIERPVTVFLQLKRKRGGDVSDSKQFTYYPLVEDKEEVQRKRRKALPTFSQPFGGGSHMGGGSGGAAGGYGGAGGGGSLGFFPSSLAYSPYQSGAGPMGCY


What was measured:
[1] = target: T1, p52 (1-341) fused to a BiFC fragment; assay: split reporter (BiFC, NanoBiT); multicolor BiFC: three BiFC constructs (VN, CC, CN) co-expressed in HEK 293T cells so that two dimers compete, with or without co-expressed Bcl3 or RelB; cells fixed with methanol 48 h after transfection; Venus and Cerulean intensity as percent of the two-construct reference; conditions: partners not purified
[2] = target: T2, Recombinant non-tagged human p50 (1-435); assay: BLI; p50:p50 homodimer
[3] = target: T3, Recombinant non-tagged human p52 (1-398); assay: BLI; p52:p52 homodimer
[4] = target: T2, Recombinant non-tagged human p50 (1-435); assay: BLI; p50:p50 homodimer
[5] = target: T3, Recombinant non-tagged human p52 (1-398); assay: BLI; p52:p52 homodimer
[6] = target: T2, Recombinant non-tagged human p50 (1-435); assay: BLI; p50:p50 homodimer; duplicate experiment
[7] = target: T3, Recombinant non-tagged human p52 (1-398); assay: BLI; p52:p52 homodimer; duplicate experiment
[8] = target: T2, Recombinant non-tagged human p50 (1-435); assay: BLI; p50:p50 homodimer; duplicate experiment
[9] = target: T3, Recombinant non-tagged human p52 (1-398); assay: BLI; p52:p52 homodimer; duplicate experiment

Binder | fold more stable than the p52:p52 homodimer (BiFC fluorescence, without Bcl3) [1] | koff [2] | koff [3] | Kd [4] | Kd [5] | koff [6] | koff [7] | Kd [8] | Kd [9]
RelB (1-400) fused to a BiFC fragment (domain or fragment, UniProt Q04863 1-400, looked up, RelB, rel homology region, residues 1-400; Three constructs that differ only in the fluorescent-protein fragment are written as one molecule; The methods give limits for RelB-CN only; also called RelB-CN; RelB-VN; not shown: BiFC fragment behind a (GGGGS)2 linker (Cerulean 1-172 in RelB-CN; N-terminal fragment of Venus in RelB-VN; C-terminal fragment of Cerulean in RelB-CC; one for each …)) MPSRRAARESAPELGALGSSDLSSLSLTVSRTTDELEIIDEYIKENGFGLDGTQLSEMPRLVPRGPASLSSVTLGPAAPPPPATPSWSCTLGRLVSPGPCPRPYLVITEQPKQRGMRFRYECEGRSAGSILGESSTEASKTLPAIELRDCGGLREVEVTACLVWKDWPHRVHPHSLVGKDCTDGVCRVRLRPHVSPRHSFNNLGIQCVRKKEIEAAIERKIQLGIDPYNAGSLKNHQEVDMNVVRICFQASYRDQQGHLHRMDPILSEPVYDKKSTNTSELRICRINKESGPCTGGEELYLLCDKVQKEDISVVFSTASWEGRADFSQADVHRQIAIVFKTPPYEDLEISEPVTVNVFLQRLTDGVCSEPLPFTYLPRDHDSYGVDKKRKRGLPDVLGEL | ~20 fold | – | – | – | – | – | – | – | –
His-Bcl3(1-446) (natural protein) MDEGPVDLRTRPKAAGLPGAALPLRKRPLRAPSPEPAAPRGAAGLVVPLDPLRGGCDLPAVPGPPHGLARPEALYYPGALLPLYPTRAMGSPFPLVNLPTPLYPMMCPMEHPLSADIAMATRADEDGDTPLHIAVVQGNLPAVHRLVNLFQQGGRELDIYNNLRQTPLHLAVITTLPSVVRLLVTAGASPMALDRHGQTAAHLACEHRSPTCLRALLDSAAPGTLDLEARNYDGLTALHVAVNTECQETVQLLLERGADIDAVDIKSGRSPLIHAVENNSLSMVQLLLQHGANVNAQMYSGSSALHSASGRGLLPLVRTLVRSGADSSLKNCHNDTPLMVARSRRVIDILRGKATRPASTSQPDPSPDRSANTSPESSSRLSSNGLLSASPSSSPSQSPPRDPPGFPMAPPNFFLPSPSPPAFLPFAGVLRGPGRPVPPSPAPGGS | – | 0.000354 s⁻¹ | 0.000393 s⁻¹ | 6.87 nM | 3.12 nM | 0.00033 s⁻¹ | 0.000323 s⁻¹ | 6.56 nM | 2.4 nM
